Earlier results on one substance are cited in paper PMC8573850.

Several values for one entry are separate records, joined by “and”; a condition that tells them apart may be missing. Equal entries are not always repeated.

The target of this data set is Neuropilin-1 (Homo sapiens) (UniProt O14786).
Chain of UniProt O14786 (O14786 22-856): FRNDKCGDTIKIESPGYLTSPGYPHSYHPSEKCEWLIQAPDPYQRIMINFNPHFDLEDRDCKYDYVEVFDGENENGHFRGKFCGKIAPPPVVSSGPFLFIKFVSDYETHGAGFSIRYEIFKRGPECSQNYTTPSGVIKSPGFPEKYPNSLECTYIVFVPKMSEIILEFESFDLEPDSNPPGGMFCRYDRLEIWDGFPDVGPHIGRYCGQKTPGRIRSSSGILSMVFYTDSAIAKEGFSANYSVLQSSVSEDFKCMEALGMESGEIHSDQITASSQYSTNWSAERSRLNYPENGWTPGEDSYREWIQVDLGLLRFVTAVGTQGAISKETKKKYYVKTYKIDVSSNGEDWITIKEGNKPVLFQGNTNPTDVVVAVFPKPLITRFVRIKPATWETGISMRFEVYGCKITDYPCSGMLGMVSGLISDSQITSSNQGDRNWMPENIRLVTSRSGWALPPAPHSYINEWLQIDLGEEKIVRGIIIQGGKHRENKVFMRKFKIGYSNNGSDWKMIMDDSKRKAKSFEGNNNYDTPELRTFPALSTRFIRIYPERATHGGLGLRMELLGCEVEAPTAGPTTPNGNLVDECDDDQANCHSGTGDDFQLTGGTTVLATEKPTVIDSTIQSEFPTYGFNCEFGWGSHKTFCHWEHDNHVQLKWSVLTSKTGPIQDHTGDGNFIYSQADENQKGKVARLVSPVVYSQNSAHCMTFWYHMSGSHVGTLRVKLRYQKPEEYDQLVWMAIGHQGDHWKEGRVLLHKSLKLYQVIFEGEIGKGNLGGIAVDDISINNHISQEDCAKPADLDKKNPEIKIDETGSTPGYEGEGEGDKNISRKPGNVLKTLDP

Turning to “Spike protein CendR peptide CendR (from UniProt P0DTC2)”, the Kd is 13 µM and 20 µM.

Broadly, the Kd is the free concentration of one partner at which half of the binding sites on the other are occupied at equilibrium, for simple one-to-one binding.
